Measured values: patent publication US20110086364A1 (TEKNOLOGIAN TUTKIMUSKESKUS VTT, published 2011)

Target: T1, immune complex of anti-THC T3 Fab and THC (tetrahydrocannabinol)
T1 construct: the target is the Fab-hapten complex; The Fab was labeled with europium (LANCE Eu-W1024 ITC chelate) for TR-FRET and biotinylated for phage selection; also called T3+THC complex; T3+THC immune complex
Assay: homogeneous TR-FRET in saliva: Eu-labeled T3 Fab, Alexa Fluor 647-labeled Fab 104, spiked THC
Method: 40 μl saliva samples spiked with 0, 3.75, 7.5, 15, 30, 60 and 120 ng/ml of the following drugs: D9-THC, 11-OH-D9-THC, 11-nor-D9-THC-COOH, heroin and amphetamine were added to the wells. After short mixing, the time resolved fluorescence resonance energy transfer (TR-FRET) was measured by Victor V fluorometer (Perkin Elmer Wallac).

T1 sequence (VH, as listed by the source, chain 1 of 2): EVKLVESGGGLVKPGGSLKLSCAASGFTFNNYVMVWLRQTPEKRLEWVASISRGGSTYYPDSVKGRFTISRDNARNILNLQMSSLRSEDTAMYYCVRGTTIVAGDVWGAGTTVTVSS
T1 sequence (VL, as listed by the source, chain 2 of 2): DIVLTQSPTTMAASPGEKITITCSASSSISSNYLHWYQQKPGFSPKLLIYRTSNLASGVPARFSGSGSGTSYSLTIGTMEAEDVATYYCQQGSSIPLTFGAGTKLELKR

B1: anti-T3+THC immune complex Fab 104 (Fab, V domains shown)
VH: QVQLVQSGTEVKKPGATVKISCKFSGDNFIDYYMHWVKQAQGKGLEWLGLVDLGDGQTIYAEKFHGRGTITADSSRDTAYMELSSLRSEDTAVYYCAAAKAYRQGVMDVWGQGTLVTVSS
VL: NFMLTQPHSVSESPGKTVTISCTGSSGSIASNYVQWYQQRPGSAPTTVIYEDNQRPSGVPDRFSGSIDSSSNSASLTISGLKTEDEADYYCQSYDSSNQVFGGGTKLTVLG
notes: Labeled with Alexa Fluor 647 for the TR-FRET assay
B1: binds.
